Legend:
Assay in all cases: ITC; RPN13 Pru in the cell (15.6, 20.57 or 16 μM), RPN2 (940–953) in the syringe; 25°C; 20 mM sodium phosphate, 50 mM NaCl, pH 6.0, with 10 mM βME (reducing) or without (non-reducing); one-site fit
Settings in all cases: both partners purified
[1] = target: T1, RPN13 Pru (1–150), reduced (UniProt Q16186 1-150)
T1 construct: also called RPN13 (1–150); redu RPN13^Pru; source: E. coli BL21(DE3) pLysS, purified (Talon resin, PreScission cleavage, Superdex 75); not shown: His6, N-terminal, cleaved
T1 sequence (Q16186 1-150): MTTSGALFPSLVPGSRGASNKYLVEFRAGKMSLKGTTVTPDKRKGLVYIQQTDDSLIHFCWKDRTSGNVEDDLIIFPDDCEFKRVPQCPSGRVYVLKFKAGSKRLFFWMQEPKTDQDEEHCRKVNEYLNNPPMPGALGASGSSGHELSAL

[2] = target: T2, oxidized RPN13 Pru (1–150) (UniProt Q16186 1-150, oxidized with 0.05% H2O2; the residues are not told)
T2 construct: RPN13 Pru domain, residues 1-150; also called oxi RPN13^Pru; oxi-RPN13^Pru; source: E. coli BL21(DE3) pLysS, purified; oxidized with 0.05% H2O2 on ice for 10 min; not shown: His6, N-terminal, cleaved
T2 sequence (Q16186 1-150): as above

[3] = target: T3, oxidized RPN13 Pru (1–150) after incubation with TXNL1^Trx (UniProt Q16186 1-150, oxidized with 0.05% H2O2, then restored by a 3-fold molar excess of TXNL1 Trx; the residues are not told)
T3 construct: RPN13 Pru domain, residues 1-150; source: E. coli BL21(DE3) pLysS, purified; not shown: His6, N-terminal, cleaved
T3 sequence (Q16186 1-150): as above

- Kd [1]: 12.4 ± 5.29 nM
- Kd [2]: 40 ± 15.3 nM
- Kd [3]: 18.9 ± 5.7 nM
B1: RPN2 (940–953) (peptide, UniProt Q99460 940-953, looked up)
chain: QEPEPPEPFEYIDD
notes: Eluted from the resin as GST-RPN2 (940–953); also called RPN2 peptide; GST-RPN2 (940–953); source: E. coli BL21(DE3) pLysS, purified (glutathione resin, eluted with reduced glutathione, Superdex 75)

From paper PMC13580404 (Molecular cell, 2026)
